From patent US20200270570A1

Experiments:
[1] = biological target: L-Wnt3A (Wnt3A reconstituted into liposomes) (human) (UniProt P56704); experiment: FIG. 11A: preformed L-Wnt3A incubated with Fz8 6 h RT, ultracentrifugation, immunoblot
[2] = biological target: L-Wnt3A (Wnt3A reconstituted into liposomes) (human) (UniProt P56704); experiment: FIG. 12A: preformed L-Wnt3A incubated with Fz8 (longer time course), ultracentrifugation, immunoblot
mouse Fz8 (mouse) [3] = biological target: T1, mouse Fz8 (mouse) (UniProt Q61091); experiment: as above
T1 sequence (looked up): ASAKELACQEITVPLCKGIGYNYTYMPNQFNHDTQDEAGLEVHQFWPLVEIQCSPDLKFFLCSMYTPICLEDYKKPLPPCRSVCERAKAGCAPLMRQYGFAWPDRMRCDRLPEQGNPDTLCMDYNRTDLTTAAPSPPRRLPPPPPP

mouse Fz8 (mouse) [4] = biological target: T1, mouse Fz8 (mouse); experiment: FIG. 12A: L-Wnt3A incubated with Fz8 for 12 h RT, ultracentrifugation, western blot
mouse Fz8 (mouse) [5] = biological target: T1, mouse Fz8 (mouse); experiment: FIG. 11A: preformed L-Wnt3A incubated with Fz8 6 h RT, ultracentrifugation, western blot

UniProt P56704, sequence (P56704 19-352 limits assumed): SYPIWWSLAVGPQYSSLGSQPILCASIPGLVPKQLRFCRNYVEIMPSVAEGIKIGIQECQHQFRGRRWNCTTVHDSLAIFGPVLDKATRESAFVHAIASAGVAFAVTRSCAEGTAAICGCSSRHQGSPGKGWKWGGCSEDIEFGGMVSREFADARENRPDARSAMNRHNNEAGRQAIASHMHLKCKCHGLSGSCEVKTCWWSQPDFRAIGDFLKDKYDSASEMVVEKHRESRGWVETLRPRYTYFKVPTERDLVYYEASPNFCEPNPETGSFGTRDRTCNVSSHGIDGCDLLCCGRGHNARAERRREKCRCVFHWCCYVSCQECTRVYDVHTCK

| percent of Fz8 in supernatant (not liposome-associated) [1] | percent of Fz8 in supernatant (not liposome-associated) [2] | percent of Wnt3A in liposomal pellet (not with Fz8) (mouse Fz8 (mouse) [3]) | percent of Wnt3A in Fz8 rich supernatant (mouse Fz8 (mouse) [4]) | percent of Wnt3A in liposomal pellet (not with Fz8) (mouse Fz8 (mouse) [5]) | Substance |
| --- | --- | --- | --- | --- | --- |
| 98.6% | 94.5% |  |  |  | mouse Fz8 (from UniProt Q61091 28-173) (receptor) |
|  |  | 88.7% | 11% | 100% | L-Wnt3A (Wnt3A reconstituted into liposomes) (from UniProt P56704 19-352) |
